Measurements published in US20250163164A1 (LANOVA MEDICINES DEVELOPMENT, published 2025).
Where a chain is given by its changes, count along the chain named. Several values for one entry are separate records, joined by “and”; a condition that tells them apart may be missing. Identical values can stand only once.

T1: human interleukin 13 receptor subunit alpha 2 (IL-13RA2) (human, UniProt Q14627 27-380)
T1 construct: whole, on cells; also called IL-13Rα2; CD213A2
T1 sequence (looked up): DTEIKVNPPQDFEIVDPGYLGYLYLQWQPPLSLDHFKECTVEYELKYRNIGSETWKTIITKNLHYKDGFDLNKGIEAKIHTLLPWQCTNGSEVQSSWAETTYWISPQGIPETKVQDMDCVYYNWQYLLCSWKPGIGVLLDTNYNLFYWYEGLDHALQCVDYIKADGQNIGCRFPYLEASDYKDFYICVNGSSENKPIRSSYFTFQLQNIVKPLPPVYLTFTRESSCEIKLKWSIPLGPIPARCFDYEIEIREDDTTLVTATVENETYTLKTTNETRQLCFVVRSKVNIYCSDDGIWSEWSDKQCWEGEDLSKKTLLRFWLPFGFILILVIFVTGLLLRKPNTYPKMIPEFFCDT

B1: 51G2B3 (antibody, V domains shown)
VH: QVQLQQSGPELVKPGASVKISCKASGYAFSDSWMNWVKQRPGQGLEWIGRIYPGDGDTNYNGKFKGKATLTADKSSNTAYMQLSSLTSVDSAVYFCARSWNGSPWFPYWGQGTLVTVSA
VL: DVLMTQTPLSLPVSLGDQASISCRSSQTIAHRNGNTYLEWYLQKPGQSPKLLLYKVSNRFSGVPDRFSGSGSGTDFTLKISRVEAEDLGVYYCFQGSHVTWTFGGGTKLEIK
notes: purified mouse antibody
B2: 62F6A8 (antibody, V domains shown)
VH: QVQIQQSGAELARPGASVMLSCKASGYTFTDYWMQWIKQRPGQGLEGIGAIYPGDGDTAYNQKFRGKATLTADKSSSTAYMQLNSLASEDSAVYFCARGATLLRPFPFWGQGTLVTVSA
VL: DIVMTQSHKFMSTSVGDRVSITCKASQDVSTAVAWYQQKPGQSPKLLIYSASYRYAGVPDRFTGSGSGTDFTFTISSVQAEDLAVYSCQQHYSIPPTFGGGTKLEIK
notes: purified mouse antibody
B3: 61H8C1 (antibody, V domains shown)
VH: B2 VH with I4L, D31S, M34T, G56D, A59S, R65K, A87T, F95Y, F108Y
VL: B2 VL with A56T
notes: purified mouse antibody
B4: 72B4H4 (antibody, V domains shown)
VH: QVQLQQPGAERVRPGASVKLSCKASGYTFTNYWMNWVKQRPEQGLEWIGRIDPYAGETHYNQKFKDKAILTVDKSSSTAYMQLRSLTSEDSAVYYCARGYGDSYGMDHWGQGTSVTVSS
VL: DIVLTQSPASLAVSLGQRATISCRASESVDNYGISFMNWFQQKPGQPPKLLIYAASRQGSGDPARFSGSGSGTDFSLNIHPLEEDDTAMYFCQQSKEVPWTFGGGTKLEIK
notes: purified mouse antibody
B5: 62A8D8 (antibody, V domains shown)
VH: EVKLVESGGGLVKPGGSLKLSCAASGFTFSSYGMSWVRQTPEKRLEWVATISGGGSYTYYPDSVKGRFTISRDNAKNNLYLQMSSLRSEDTALYYCARRDLRSAMDYWGQGTSVTVSS
VL: DIVMTQSQKFMSTSVGDRVSVTCKASQNVDINVAWYQQKPGQSPKALIYSASYRYSGVPDRFTGSGSGTDFTLTISNVQSEDLAEFFCQQYNNYPLTFGGGTKLEIK
notes: purified mouse antibody
B6: 42E3C4 (antibody, V domains shown)
VH: B5 VH with K13R, L20I, S31T
VL: B5 VL with Y53F, F86Y, N93S
notes: purified mouse antibody
B7: 74B5E4 (antibody, V domains shown)
VH: B5 VH with K19R, S31T
VL: B5 VL with F86Y, N93T
notes: purified mouse antibody
B8: 73A11E2 (antibody, V domains shown)
VH: B5 VH with K76R, S84N
VL: B5 VL with N93S
notes: purified mouse antibody
B9: 54A4F7 (antibody, V domains shown)
VH: B5 VH with Y107H
VL: B5 VL with K24R, A46S, F86Y, N93S, K107R
notes: purified mouse antibody
B10: 72B4H4 H2L1 hIgG1 (antibody, V domains shown)
VH: QVQLVQSGAEVVKPGASVKVSCKASGYTFTNYWMNWVRQAPGQGLEWIGRIDAYAGETHYNQKFKDRVTMTVDTSTSTVYMELSSLRSEDTAVYYCARGYGDAYGMDHWGQGTLVTVSS
VL: DIQMTQSPSSLSASVGDRVTITCRASESVDNYGISFMNWYQQKPGKAPKLLIYAASRQGSGVPSRFSGSGSGTDFTLTISSLQPEDFATYYCQQSKEVPWTFGQGTKVEIK
notes: humanized, hIgG1
B11: 72B4H4 H4L4 hIgG1 (antibody, V domains shown)
VH: B10 VH with V20L, R38K, A40R, V68A, T69I, M70L, T74K, V79A, S84R
VL: B10 VL with Q3V, M4L, V19A, Y40F, A47P, V62D, S64A, Y91F, Q104G, V108L
notes: humanized, hIgG1
B12: 72B4H4 H2L3 hIgG1 (antibody, V domains shown)
VH: B10 VH
VL: B10 VL with M4L, Y40F, V62D, S64A, Y91F, Q104G
notes: humanized, hIgG1
B13: 72B4H4 H2L4 hIgG1 (antibody, V domains shown)
VH: B10 VH
VL: B10 VL with Q3V, M4L, V19A, Y40F, A47P, V62D, S64A, Y91F, Q104G, V108L
notes: humanized, hIgG1
B14: 72B4H4 H3L1 hIgG1 (antibody, V domains shown)
VH: B10 VH with V20L, R38K, V68A, M70L, T74K
VL: B10 VL
notes: humanized, hIgG1
B15: 72B4H4 H3L4 hIgG1 (antibody, V domains shown)
VH: B10 VH with V20L, R38K, V68A, M70L, T74K
VL: B10 VL with Q3V, M4L, V19A, Y40F, A47P, V62D, S64A, Y91F, Q104G, V108L
notes: humanized, hIgG1
B16: 72B4H4 H4L3 hIgG1 (antibody, V domains shown)
VH: B10 VH with V20L, R38K, A40R, V68A, T69I, M70L, T74K, V79A, S84R
VL: B10 VL with M4L, Y40F, V62D, S64A, Y91F, Q104G
notes: humanized, hIgG1
B17: 72B4H4 H4L1 hIgG1 (antibody, V domains shown)
VH: B10 VH with V20L, R38K, A40R, V68A, T69I, M70L, T74K, V79A, S84R
VL: B10 VL
notes: humanized, hIgG1
B18: 72B4H4 H3L3 hIgG1 (antibody, V domains shown)
VH: B10 VH with V20L, R38K, V68A, M70L, T74K
VL: B10 VL with M4L, Y40F, V62D, S64A, Y91F, Q104G
notes: humanized, hIgG1
B19: 72B4H4 H3L2 hIgG1 (antibody, V domains shown)
VH: B10 VH with V20L, R38K, V68A, M70L, T74K
VL: B10 VL with Y40F, V62D, Y91F
notes: humanized, hIgG1
B20: 72B4H4 H4L2 hIgG1 (antibody, V domains shown)
VH: B10 VH with V20L, R38K, A40R, V68A, T69I, M70L, T74K, V79A, S84R
VL: B10 VL with Y40F, V62D, Y91F
notes: humanized, hIgG1
B21: 73A11E2 H2L2 hIgG1 (antibody, V domains shown)
VH: QVQLVQSGAEVVKPGASVKVSCKASGFTFSSYGMSWVRQAPGQGLEWVGTISGGGSYTYYPESVKGRFTITRDTSTSTAYMELRSLRSDDTAVYYCARRDLRSAMDYWGQGTLVTVSS
VL: DIVMTQSPLSLPVTLGQPASISCKASQNVDINVAWYQQRPGQSPRALIYSASYRYSGVPDRFSGSGSGTDFTLKISRVEAEDVGVFYCQQYNAYPLTFGQGTKLEIK
notes: humanized, hIgG1
B22: 73A11E2 H4L1 hIgG1 (antibody, V domains shown)
VH: B21 VH with Q3K, Q6E, V20L, G44R, G49A, T74N, A79L, M81L, L83M
VL: B21 VL with I2V, Y36F, A46R, F86Y
notes: humanized, hIgG1
B23: 73A11E2 H4L4 hIgG1 (antibody, V domains shown)
VH: B21 VH with Q3K, Q6E, V20L, G44R, G49A, T74N, A79L, M81L, L83M
VL: B21 VL with V13T, A19V, I21V, K74T, G84A, Y87F, Q100G
notes: humanized, hIgG1
B24: 73A11E2 H4L3 hIgG1 (antibody, V domains shown)
VH: B21 VH with Q3K, Q6E, V20L, G44R, G49A, T74N, A79L, M81L, L83M
VL: B21 VL with V13T, K74T, Q100G
notes: humanized, hIgG1
B25: 73A11E2 H3L4 hIgG1 (antibody, V domains shown)
VH: B21 VH with V20L, G49A, T74N, A79L, L83M
VL: B21 VL with V13T, A19V, I21V, K74T, G84A, Y87F, Q100G
notes: humanized, hIgG1
B26: 73A11E2 H2L1 hIgG1 (antibody, V domains shown)
VH: B21 VH
VL: B21 VL with I2V, Y36F, A46R, F86Y
notes: humanized, hIgG1
B27: 73A11E2 H1L3 hIgG1 (antibody, V domains shown)
VH: B21 VH with V12K, V48M, F68V, I70M, R72T
VL: B21 VL with V13T, K74T, Q100G
notes: humanized, hIgG1
B28: 73A11E2 H3L2 hIgG1 (antibody, V domains shown)
VH: B21 VH with V20L, G49A, T74N, A79L, L83M
VL: B21 VL
notes: humanized, hIgG1
B29: 73A11E2 H3L3 hIgG1 (antibody, V domains shown)
VH: B21 VH with V20L, G49A, T74N, A79L, L83M
VL: B21 VL with V13T, K74T, Q100G
notes: humanized, hIgG1
B30: 73A11E2 H4L2 hIgG1 (antibody, V domains shown)
VH: B21 VH with Q3K, Q6E, V20L, G44R, G49A, T74N, A79L, M81L, L83M
VL: B21 VL
notes: humanized, hIgG1
B31: 73A11E2 H2L3 hIgG1 (antibody, V domains shown)
VH: B21 VH
VL: B21 VL with V13T, K74T, Q100G
notes: humanized, hIgG1
B32: 73A11E2 H3L1 hIgG1 (antibody, V domains shown)
VH: B21 VH with V20L, G49A, T74N, A79L, L83M
VL: B21 VL with I2V, Y36F, A46R, F86Y
notes: humanized, hIgG1
B33: 73A11E2 H2L4 hIgG1 (antibody, V domains shown)
VH: B21 VH
VL: B21 VL with V13T, A19V, I21V, K74T, G84A, Y87F, Q100G
notes: humanized, hIgG1

Molecular target: T1, human interleukin 13 receptor subunit …
Test: FACS on A375 cells
Experimental: (§1) A375 cells that endogenously expressed IL-13RA2 were harvested from flasks. 100 μl of 1×10⁶ cells/ml of cells were incubated with primary antibodies in 4-fold serial dilutions starting from 100 nM to 0.006 nM for 30 minutes on ice. After being washed with 200 μl of FACS buffer twice, cells were incubated with secondary antibody for 30 minutes on ice. Cells were washed with 200 μl of FACS buffer twice and analyzed by FACS.

EC50 [nM]	Top (MFI)	Binder
0.87	243000	B1
0.68	217000	B2
0.41	203000	B3
0.76	262000	B4
0.9	334000	B5
0.52	235000	B6
0.6	268000	B7
0.71	223000	B8
0.84	268000	B9

Molecular target: T1, human interleukin 13 receptor subunit …
Test: FACS on A375 cells
Remark: another data set of the same source
Experimental: as §1, with “expressed IL-13RA2,” for “expressed IL-13RA2”, “primary humanized” for “primary”, “from 200” for “from 100”, “to 0.003” for “to 0.006”

EC50	Top (MFI)	Binder
2.75 nM	8360	B10
1.18 nM	8180	B11
0.83 nM	8420	B12
1.18 nM	8630	B13
1.14 nM	8830	B14
1.36 nM	8770	B15
0.811 nM	8470	B16
0.552 nM	8270	B17
1.66 nM	8780	B18
1.44 nM	8550	B19
0.976 nM	8610	B20
0.67 nM		B21
0.943 nM and 1.2 nM		B22
1.12 nM and 1.51 nM		B23
0.909 nM and 1.45 nM		B24
1.16 nM and 1.29 nM		B25
0.6 nM and 0.56 nM		B26
~251 nM and ~522 nM		B27
2.22 nM and 1.53 nM		B28
1.49 nM and 1.17 nM		B29
1.12 nM and 1.31 nM		B30
0.69 nM and 0.67 nM		B31
1.07 nM and 1.37 nM		B32
1.61 nM and 0.66 nM		B33
